In the NTF2 design screens of Basanta et al. (2020):

Assay: protease stability score; higher = more stable; yeast display proteolysis, trypsin and chymotrypsin;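 also: log10 excess protease needed over predicted unfolded state with 0 meaning unfolded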

Sequence | protease stability score
DEDTLRKVAETLMKALKTNDSESLKQMMDKDVKMTVGDKKYQGREEAADHLIELAQSVDHLEVRSVDNQGNHASVEFEVQHNGRNDTVHLRFEISNGRVKNVVLHTP | 1.99
DEDKARRVMEKLFKIVKNGNKDEMKKMGKPNVQYTYVDKRYEGEEAAKKDVEIDKEVGARVQERELEVKGDTVKAVFQYQQGDTTVQTHVEAHYEGDKVKEVKVELTEEVQKIVEQG | -0.248
DEEEQKNRAKNAADAFQTGDPDQMVEMVDKDVRVQVGDKRYHGREVARTVLDEMQQHIDHIHVKNYNVSGNTVEIRIKANINGRDVEINIHIEMHNGRVKEVKFNPKVADAAKR | 0.25
DQELRDQVERLLHLEKHGDNDEVLRQFDPNAKAQVGDTRYHGMTTAVRDMVRQQNEARFSFEIHHVSVSGDRVVIDAVYVKDHNGKPSTRRVHIQMHFRNGKVQERRQNDDG | 0.782
DEEDLKRLREMHKAVSRGDPRQIQENMDPNVRVQYGDKTIHGREHIASELITKMKHWRLDFKRYHATVTPNRVQVHIDYIERHNGKPHKNKNKAEAEVDNGKIKRYQQSSDG | -0.03
DDEDNKRKAEEFVRLMHTGDEERIKELFDPNVKAVIGDKEYHGRDTVADWARRLREQADHFDVHRMTAQGDRVHVDMFVTHNGRTKRVVIVLKYHNGRVEEIKVQDG | 2.28
DDRTKMQELLDKLREAAEDGDRRKVHQLFDENARFEIGDTEFHGMTSAAKRLAEEWKRHDHVQFSVREIRVEPGRFVVHMQERNSHNGKSDSKNVVMTVTKSNGQIRATKVKVR | 0.387
DNEEEAKKFVEELKRQYDEGNEHQIANQAPENATARVGDKNYHGRENVETYLRQIVRRADTVEIRIRSVEVHGDNVVVDFHYVLEYNGTRRNVRMKLVLDDVNGRKVALVIVQS | 0.572
DPKRVRQVAKEVAKAFLNGDKDKVKKYGDPNVKAKVLDEETQGVEQIMRELEKFMKLGVQYETKEVREEGDYVEVHTEYRDGDTTAKMTVIYKARDGKVEHLEVHYDRDARKIFRKG | 0.144
DERRQAQQFADTFDDNMQENNEEEVVKMADPNAELTVGDKEYHGREEIQKWIKQIHDKVDHLEIHIKSVDVRNGRVTIRARVRVEHNGRQKTMSVDIKAEQKNGRFIIKTMTMG | 1.47
EEELVKRLKELFEAYQTGDEHQLKDLMDPNVRANIGDKTFHGREKLITHIKRYLDELDFQLKSVTFRLSGDHAVVTFEIEVDVNGVPRSFRFRFHIKMSNGKVTEIEIQFDPERQKKLES | 1.38
DETRQAKDMVSELRKALKQGDEDKAMKLADPNVRLDVGEKDLHGRERLKEWVTEIRDKYDRVDLKVTHVHVRGNKIVVHAEVVMRRNGHQKTMTLTIVVRLQGDHLHIVEITQR | 0.803
DKEDVDHLERIMRKGDWDQLKDHADKDVTVVVGDRNIHGREKANNFLKRFKERVDHQEVRRLDVSGNEVVVDMVFNVNGRKIRATVVAVAHNGRLKEVVMRFTSEDDKRRATEAFD | 0.454
EEEKLEKMVKDVFEAVQKGNMEELKQYLKEDVRFQFGDNRYQGVDQYVKLMKTMTEQGVQFEFKKFQMKDNTVTMETEAKYADHEVRVKAEARYEGGRLDEARVELTEEAKEIYKKG | 1.17
DEEAERIIERYLEAVKTNDPEQMKEMADPNVKVKVGDKVIHGMEDAVKKVQHRLDEQRVEIKHVTLKVRNGRVNVEADVVVTHNGRPDRSKYHIDMEAHNGSAVYVRITDVS | 1.38
DEENLRTLAQEVKDILQTGDEEKLKEMLDKDVRLEVGDHVYEGSENAAKAANHWKERADHIQVDSIEIHGNELRIDVRVNVNGKNIDIDIVVTFSNGRIREMKFQYRDEDEKRQLER | 0.809
DEEQAKTVMEEWAKAVQKGNTEKLKKLYKPDVEWKNGDKKNQGVDQVETQVKKAKDQGVEFQVRKAEVKGNRVRVVYDAKVGDKTVTFTVEFDVDGGKIERVRVEVDEEAKKVQKQG | 0.322
DERRQQEVLKRFIDALQTGDPQKLKELADPNAQVNVGDKTFHGRDELVRQVEDEKRRIDEFHVVSIENHGDHVTARFRKESDGHQTEFVMKAYVHNGKVQSVKIDSS | 0.201
DQKKLKEQIKELWDALRTGDPQRAADLADPNARIQVGDKEITGREKFREHVKENKERIDRFTINDFKVQGDKARVDFHYEVNGQHRRVDATIVMRNGHIVSAQFDSQ | 0.717
DTKERQNRAEEINKNFKEGNPHEYMSMLDKNASAQVGDKQVHGRERMSKRIEDIVRRADKLTIETFHVSGDKVEIVVQLIVNGTRVRMEVEIKFENGHAKHVEFNPEQDKQLKQ | 0.421
DEEQLKKVVEKLLQAIQNGNLDEIKKMLKDDVTFVLGDKTFRGVEQAVKIVKQLVDKGAEFHVERLEVKGDQAHVKTYWHAGDKTMELTVTYNVRDDKVEKVQADWSEEVKKARKHD | 0.985
DEKREKDVAENFNTILENNDPDNLRKQAPPEAHAVIGDTRYRGMETFVTIMKKMWDEVDHFTVDDYQVQNGRVTIQAHVQVNGRQVTLHLEMIIDNGHITHIRMDPRQYRQFEG | -0.434
DHELEELAKRFLEAVLTGDEDQLRRNMDPNVKVDVGDKTVKGREEAAREIHETVHRSRIHVNHVDFRLNNGRETMRMDVVVDHNGRPQKDTWKMNQDVQGDKVKNINFRTDG | -0.353
DDSKERSNLEKFAKALETGDPKKLQQQLDPDARMQIGDKTYHGRHDMEKWLEEFNRQADHYQIDTFDQHNGTLNIQMRMNINGNTVSMTVNVVAKNGRVKHVTFDPDVWRQLES | 0.809
DEKQVHKMARQLVKALEHNDPQKVADLVDENVRASIGDTEYHGREHVKKAIKQMVDSIDHMRVRTVTAHNGTIDIDFQVVVNGRTERYQMRAEVHNGRIQSLRVDKR | 2.02

Sequence | protease stability score
DEDKVERLKHMWKVVEEGDEDKLREQFDKDASVTVGDKVLTGRENLARHWKRIRDELRFSMTMEKVEVHNGVVDIRVTATEDNNGRPQHKVADVRVDMHNGRIKVLEVDETK | 0.154
DDEREREFEHFLRVVEEGNPEELKKLLDPNVRIEYGDKVIHGREEYAKRVHETVKELRFSMSIHDVKVNGDTVEVDATSSWTHNGQPNKDQNVLVIRFHNGKFKEIRHDKDR | 0.607
DETEWREFAEEFIRLFQQGDEDRLRKLIDKNAKIRYGDREVDGRDSIAKQIRDNREQIDRIDLVDMKVRGEHITITIDVDHNGQRRRIVIHINVHNGHIKNVEVDSG | 1.02
DEDNMHRLKEFLDNLNQGDEERLVELADEDVKLVYGEKRYHGREELTKTLETQRDQMRVDYKVKSMSVSNGRVHADIEASNTKNGKPKRFKVRVHAEFHNGRLQVYNQQEDK | 0.42
DDRTQKRLAEEVVRILNRGDEDQIRKMADKDVKARVGEQSVHGRETALRLLIEFNRRVDHVDIRHVHTEEGRVEVDLVAEVNGRRIRMHIVFILHNGKLHKVEMDPDELRKLEK | 0.868
DEEVKRLAERILSALERGDPQQISDNFDPNARLEIGDKRIHGREELRKYVDTVRKTQRISIRSFRVSVHNGQVDIDIHFENEHNGDPDERRRSINIQASNGKAKNVVYQDNK | -0.336
DESHARHLQRVFEKNDWQRLVELADEDVRIQIGNYDYHGRTAAQQMFEKLSKQIDHMEVKSMRVQGNKLQFDFEVNFNGKRNQAHFEMHFSNGRIKKIRFQFRDEEHEKDFDRHFS | 1.46
DKSAQDLFRKLLEALDTGDEKTAEENMDPNAHARVGDKEVHGMDEYAKHRATENRRMKIRWNSVNLRVHNGQLNVDVDVEVTENGRPSRSRARVVMRMKNGRIKRLEVNEHK | -0.118
DERQVERIDRHLKALEHGDEKTLVEMIDPNAHFSVGDKEIHGREEYAHQQRRRVKESRFQVTIKDVQVNGDTVHIKYTSDQKHNGQPREDSNVMVMDATGERIESAKVTKDQ | -0.418
DEKKAEELARTVFEMADKGDKDTLRKIGMPNGEYKYVDKRYEGEQLALILVEQIKKVGAQVKVKRMEVRGDKVQADFDYEYGDKTVRTTARLEYKGDKLLRAEVEVSEEVKKIMTQG | -0.073
DRKAKEFAETLYDIFQRGNFENFLELIDKNVTVDVGDRTLHGRQAHEFAKEFQKEQLKVEVDDWHVDNQGEKVRITMTFVLHVNGRPQKQRQEQRFHLHNGRIKSLQVKTDE | -0.156
DHTIDEVFKQFETAKNDNDPDQLKKNADPNVDYTVGDQFVEGREHAADDIRRRREQQRNEIRSLRHSVQGNDIDVSVDMEVEHNGKPSDFTQRIDVVAHNGKIKHQTAHQEG | -0.505
DDDAVRQVHTFWRILERGNSDRATEMLDENARVEVGDRSLHGREKIVTQQYRLYTQARIEVERYSAQDHGNKVHAFVLVVVHVNGTPHRFTVDVNFVFQNGRFKSIHLQVSEEQLRQEER | 0.604
DEEQNTRFHRMLEDLKTGNEERVQDYMDPNVKVRIGNNVLDGREHAATHMVQLNREIRFHIHNFTVQVHNGRLDIKANADADVNGKPIKFSYERYAILHNGTIKRMREQFDEHLKRQLDR | -0.013
EEDAVDRARKMFENLKTGNEDHFKEQFDPNATIRIGDQKVHGMENLKDHMRKVRKHMRVDFRRVDIKAENGRIDIKARADFSVNGRPVSQHFTARAVVSNGRFKSFELQVSEEDEKKVKS | 0.606
EEEVVKEVTKAAKTGNFEKLLRLADPNVEMRIGDKTFHGRTELKDALRDIKQNADHIELKSLDSHNGRLEVDLVVNVNGKDVRFILRVSVHNGRITQMSVESRDTDFKKVLDEMLG | 1.91
EEEANKHLRQWWRNFRKGSEEKMKNLMDPNVRVVVGDKVYSGREQVMKMVRDQLTHARFDFDLERLSAHNGKIDITMKLVADINGKPVKVHVKADVQYSNGRIESIVLHVDPDQQRKLTE | 2.19
DEQIVHRAKEMDKAFNRGDPDLFNKMADENARVEVGDNVLNGRSDYKRYMDQVRKDLNVEIKSVHHQKRPNHARVKVDQVMNHNGQPRRRHIDIKIRAHNGTAKNIHFREDG | -0.326
DEEQVREAMEIVKHGDPDKFRKQADKDVRLTIGDTEYHGREDVMTVLVSFLRTVDHLNIKSVDVRGDKAVINADFNYNGKEININIHLEFHNGRLKSVQIQATNREDQKDLKRIIK | 1.28
DEEKLHTIAKKAADIVQSGDEEKIIRLADPNAEMRIGDQELHGMDDAKRVLHEFMKRVDHVSVKTWHVQGNRIRLDVKFEVNGRDIRVELDITIENGEIDSMEFDPRARDAQKT | 0.183
EHENVRLARSLIDALQQNNPQQAQENADKDVQYEVGEKRIHGREQYSDTMRKNKEQMEFRVHSVDMDEHNGRVTVNLTFIESTNGDPKQDRANLVIEFHNGRIQHVRMSKDG | -0.268
DERKRAEKALNEWQRMWKYGNEEDFQKLADENVHFKYGDKTYRGREKMRKWVKEVLDSVDHVEVRIVSLHVRGDKITVRIRIYMEHNGRRTSFEYTMQLVDNNGHIVIVRFEQN | 0.203
EESVIKRIHQLMESNDWDQLVRQMDEDAKVEIGNFRVEGREEAEDWARKVKKQVDHLEVEDIQIRGNKVEVTMNVQVNGKTVRFDLVMEVRNGRVTSMSARFRSEDDVKIMEEMLK | 1.15
DEDTALTIAEQVMKAIQRGDEEEAEKLGKPDVEVQAFNERNKGQEMLKKAVEYVKKVGDQFEYKETRKEGNQVVTVVQVTRGGRTMEYKVDVKVEGGKVKLWRVEIPEEFAKVVEKS | 0.013
DEEIERRVENRLKALEEGDEDKVRDNVDPNVRIHVGDKVWHGREHARDFARQQKEHARRKVDEYSVRVNNGKLSVKQRFKEDRNGQPREDHQQYSADIHNGTLKDMTVTKDG | 0.608
